# Measurements published in the DeepSol protein solubility set.
# Experiment: soluble on expression in E. coli; label from the status in PepcDB or PDB records
row,Sequence,soluble on expression in E. coli
1,AHHHHHHGSGGMTIAEKILATHAGKEEVKPGEIVLAKVDFMFGNDVTTPLAIKTFRKIGVEKVFDPERIAIVLDHFTPNKDIKAAEQCKFSREFAREQGIKWFFEGGNVGVEHCLLPELGLVLPGELIIGADSHTCTYGALGAFATGVGSTDLAVAMATGEAWFRVPETIKFVYEGDLQPWVTSKDLILYTIGDIGVNGALYKVMEFSGEVIEKLSVEQRMTMTNMAIEAGAKTGIIEPDKKTIEYVKGRAKREYKIYKSDEDAKYYKVIEYDVSKIEPQVAFPHLPENTVPISKAAKMNIKIDQVVIGSCTNGRLEDLRMAAEVLEGQKVAPWVRLIILPCSPTVYFKAMKEGLLEIFLEAGAVIGPPTCGPCLGGHMGILASGERAVSTTNRNFVGRMGHPKSEVYLASPYVAAASAILGRIASPEEVVK,soluble
2,MQVIVGHSSTRLPENNENGHTHKWTLFVKPGNRDYDEFPDNKLIQKVKFEIHESFAQPVRFVTKPPFKITETGFASFTTLVTIFLNLPNEKPRTIPYELTLFTGDQDVQLETQKLVVQKDVPPAYLELIKKYARTKKRKASLISNDEKSPSRKMHKITPVKEEESSQKMSKSKEKGVPIPKIDIEIEKASPKKEKKEKVKSPEELTRRLNECTDSHVIYKASEYLLTLPDTKLSQTTLKLSFDLSRCDSTTLMDIGRILKGKKAKK,not soluble
3,MSEGLSFVIQRHQARRLHYDFRLEIDGVLVSWAVPKGPSRDPSVKRLAVHVEDHPLEYGGFSGDIPKGQYGAGHVDIWDSGVWIPRGDPRQGLRRGKLHFALRGRRLAGDWVLVRMSGEQDQWLLRKEDDEALEHHHHHH,not soluble
4,MGSDKIHHHHHHVMTKAADGMSDWDNMAIICDVLGRAPDVEMGSIGEGWSLCRWRQFVGAYTLPALPQPIFTVHIAGKPQVKTWDKGGWTETSSIPGCATIVPAGMPTGWLVDGELDVVTLSMASDVLAGQPHADQFNRMRFAFSDPLGVALTRQILSEIYAPQAEERTAYVSAMVGALKAHILSGPPAHGNPVDIPVSDFSAYRLHKIMNAILADPAAEHSLEAMAAVAGVTPSHFCRLFKKAIGITPHQYVMKARLDRAQQMLVQTEMSLAALSEAAGFASQSHFSRAFRSWFGMAPSDFRQQERRRTD,not soluble
5,MGSDKIHHHHHHMVRHKRDIQRDTVPEWEDLRQLAHEIKRYNVTHLDELLLRFEENARRNGVIVHWAKDAKEHNEILYGILRDHGVKKFVKSKSMLTEECHLNEYLIEKGINVIETDLGERILQLMEEPPSHIVMPAIHIKREAVSDLFHDKLGTEKGNYDPTYLTRAARKSLREDFISADAAMTGGNFAVASTGEVVVCTNEGNADMGMACQKLNICSFGLEKLVPDLDAVGVFTRLLARSGTGQPSTTYTAHYRKPHEGGELHYIIVDNGRTDIIENEEHVKTLNCIRCGACMNTCPVYRRSGGYSYTYFIPGPIGINLGMLKDPRRYSDNVSACSLCLSCSNVCPVKIDLGEQIYRWRQDLDHLGRASQEKKLMSAGMKYLMDSPWRFNTALKMAPMANSLPRFLLYNGLNAWGKGRELPRFASTSFNNWWKKNIKK,not soluble
6,RHQNYGVPWTPGETRQVWDVEARIEFNANGNEVKASLAAPHTQSGYTLIGESASSSGYGVSYINSDSGRRAEWSIRQAKGPQTIYYKAQFLVDPQAKVEPLPPAGDITPPTLSAPQQAAASALIDQAMSRSADNVTFARELIKTLNDPDSQNSALLLNDFDRTDALHKILLSAGVQSKIVGVIELEDGRRRQTIQPMVQVWSGKDWVLFSPNSEQKAVKPNLLVWDESNVSLLDLVGGKNSQVHFSMIKQEVTPQQATNNKVEADGLLNLSIHSLPLEEQAMFK,soluble
7,MSLNKKIEELNKLDKKVVLAPMAGITDGDFCRKFKDLFAIVTIGGYNLDSATYKASRDIEKRGRKEFSINLEEFNSYIIEQIKKARESNALVSVNVRFVDIDEAYDKLLTIAKHADIIELNCHCRQPEITSLGIGQELMKNKNLLKEFLTKMKELNKPIFLKIRLNCIPLKELIDNLNYVRDYFDGLHVDCFYPGKPYADMDSLKILAEEFNDKIIIGNNSIDSIEKAKEMLKYSDFVSVARTILKGNVEWIKELNKENIEGHHHHHH,soluble
8,MGNESTPLRTITQALKLARPGTVIQLTPGNYSVETGETFPLMLKPGVSIQGNTSNKGQEVKIQGGGLFLSRSFGGQNVAIVGANQAGLTGVTITNPNPRGYGLWIESSNPVISENTFTGNTQDGISVTGNSATTITKNYFYRNGANGITIGGNSPAQVRENLFEETGFGINVAQNAVPMLVSNQIQNNRSGIIVQANARPILRNNLIQGSKEDGVVAIAQAMPDLGNATEAGGNEFRNNARHDINASAAKQAIAAVGNILDTKRITGKVALEHHHHHH,not soluble
9,MGSDKIHHHHHHMSFEQDSTPRGNPVSCESARETNEFSPGKTCIKLMNYRRLTPSMSLLLVFEAAARHESYTRAADELSLSQSAISRQVQTLEDQLGVSLFRREGRSVKLTEVGRRYFVELSGALGRIRGATLQAMSHQAGAGTLRLATLPTFGSKWLLPHLHDFYAAHPGVTVHLHSRIGGIDFHTDDLDAAITVGSGDWPGLHAHRLYNEFLIAIASPDAAGRRKAGPRAPAWAVGQTLLGVTSNQHAWAEWFSHFGLDHREMRIGPSFELTSHLIQAVRAGMGIGLVPKVLVEDELSRNELVSIGDAITSQRSYYLVYPPENDTLPSLVAFREWLLKSC,not soluble
10,MGSDKIHHHHHHMYLLVYGSLRYGFELNHLVAKSRFVGLGYIEGYEMYDLGNYPGVIKGDGIVWGEVYEIDENLIKLLDEVEDYKGSPDDLYVREKTRVYFDQKRKYYLDNVYFYRYNKEIVKNMEKIEDGDYSAWSGMPIIVNYFAYAENTNERILHQRGVDMILSETPAYTKGYRLIFNIPCKYGYCANLIEDESGIICGYLQKVFLHTLNSLDKAEQHLIKYIREVVKVYDRNGKEYFAYAYVSSYKENRKKPSEEYVKIIREGLMRGWGNECVSTGLYDEPGIS,not soluble
11,MSLKVWGRGSSFNVQKVLWLVGELGLSHRHIPAGGDHGGLDEPSFLAMNPHGRVPVIDDGGVMVWESHAILRYLAARYGGSEWWPASPVDRAQADGWMDWAQTALQRDFLTGVFWGWYRTPEPERDNDAIRTALAACAKHFLLLDQILANRPFLGGDQPGLADIPCGTHLFRYYALEIDRPRTPNVEAWYARLQARPAYRKAVMIPFDEMKGRLAYEGHHHHHH,soluble
12,MDPFRFQVEARAGRARVGRLFTPHGAVETPLFMPVGTAGSVKGLMPKDLEAIGSQVLLTNTYHLLLRPGPERVRALGGLHGFAGWKGPWLTDSGGFQVMSLGHMRRIDEEGVVFQSHLDGRLIKLTPERSIAVQEALGADLIMAFDECPPYPSPREYLEASLERTLRWLERSLKAKTRPDQALFGIAQGGTDPELRRRSTLETIRFDLPGYAIGGLAVGEPKEAMFAMVELSTRLLPEDRPRYLMGVGHPEDLVAAMGLGVDLFDCVYPTRTGRFGSALVPEGRLNLKNARFLEDRRPLEEGCDCYTCQTFGRAYLAHLVRAGEMLGGILLSLHNLRHLHRLTEAARQAIREGRYGDFAREFARRRFGREVPPWFREALAAGGHG,soluble
13,NVAGEEAVREYKKGDEISAVVLAVDAERERISLGIKQMENDPFNAYVADNKKGTLVNATVTAVDAKGATVEIAEGVEGYIRASEVSRDRVEDASLILSAGDVVEAKFTGVDRKNRVINLSIKAKDEAEEQEAMASINKQDEAAFGNAMADAFKAAKGE,not soluble
14,MVSDIVLEVQSLHVYYGAIHAIKGIDLKVPRGQIVTLIGANGAGKTTTLSAIAGLVRAQKGKIIFNGQDITNKPAHVINRMGIALVPEGRRIFPELTVYENLMMGAYNRKDKEGIKRDLEWIFSLFPRLKERLKQLGGTLSGGEQQMLAIGRALMSRPKLLMMDEPSLGLAPILVSEVFEVIQKINQEGTTILLVEQNALGALKVAHYGYVLETGQIVLEGKASELLDNEMVRKAYLGVA,soluble
15,MGHHHHHHSHMKGIMVQGTASDVGKSLICTALCRIFARRGYKVTPFKSQNMSNNSYITVEGLEIGRAQGIQAEAAMEEASVYMNPILLKPRNDREAEIVCFGQAVDTVSGVKYRDGFYKRGLEAIKQALATLSQSFDMVVIEGAGSPVEVNLNDRELVNMKVAELADVPVILVADIERGGVFASLYGTLELLQPNERKRVVGIIVNKFRGDPELFSSGVQWIEQHLGVPVLGVLPHLPGVRIEGEDSLSKGQVTSVLP,not soluble
